Reference: patent US20260176319A1 (KALLYOPE, published 2026)
Starred links: 1 amine or outer side, 2 acyl side, 3 side chain; linkers in the order of their positions; H or OH if unused. Non-standard residues stand in square brackets, D forms with d. *: point of attachment. Trp(6-Me) = Cc1ccc2c(C[C@H](N)C(=O)O)c[nH]c2c1; Trp(7-F) = N[C@@H](Cc1c[nH]c2c(F)cccc12)C(=O)O; Trp(7-Me) = Cc1cccc2c(C[C@H](N)C(=O)O)c[nH]c12; d(γGlu) = O=C(O)[C@@H](CCC(=O)[*:2])N[*:1]; C18 diacid = O=C(O)CCCCCCCCCCCCCCCCC(=O)*; γGlu = O=C(O)[C@H](CCC(=O)[*:2])N[*:1]; 2Nal = N[C@@H](Cc1ccc2ccccc2c1)C(=O)O; Palmitoyl = CCCCCCCCCCCCCCCC(=O)*; 3Pal = N[C@@H](Cc1cccnc1)C(=O)O; 4Pal = N[C@@H](Cc1ccncc1)C(=O)O; Nle = CCCC[C@H](N)C(=O)O; AEEA = NCCOCCOCC(=O)O; Aib = CC(C)(N)C(=O)O; Ava = NCCCCC(=O)O; Sar = CNCC(=O)O

Target: human GRP receptor (human, UniProt P30550 1-384)
Test: cell-based or functional assay

Sequence of human GRP receptor (P30550 whole entry): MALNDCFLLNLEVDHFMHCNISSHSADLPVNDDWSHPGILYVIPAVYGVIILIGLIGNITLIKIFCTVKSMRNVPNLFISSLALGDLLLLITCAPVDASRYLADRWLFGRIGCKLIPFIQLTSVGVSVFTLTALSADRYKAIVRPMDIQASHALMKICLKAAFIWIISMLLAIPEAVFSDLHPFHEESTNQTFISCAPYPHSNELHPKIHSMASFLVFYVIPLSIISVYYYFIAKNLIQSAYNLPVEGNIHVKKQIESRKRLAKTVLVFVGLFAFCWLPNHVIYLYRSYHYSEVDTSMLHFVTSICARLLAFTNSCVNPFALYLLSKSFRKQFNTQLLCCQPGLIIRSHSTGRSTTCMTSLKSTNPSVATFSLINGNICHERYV

hIP1 GRPR EC50 [nM]	Binder
1.45	Palmitoyl-[γGlu][AEEA][AEEA]GN[4Pal]WAV[dA]HL[Nle]-NH2 (SMILES CCCCCCCCCCCCCCCC(=O)N[C@@H](CCC(=O)NCCOCCOCC(=O)NCCOCCOCC(=O)NCC(=O)N[C@@H](CC(N)=O)C(=O)N[C@@H](Cc1ccncc1)C(=O)N[C@@H](Cc1c[nH]c2ccccc12)C(=O)N[C@@H](C)C(=O)N[C@H](C(=O)N[C@H](C)C(=O)N[C@@H](Cc1c[nH]cn1)C(=O)N[C@@H](CC(C)C)C(=O)N[C@@H](CCCC)C(N)=O)C(C)C)C(=O)O) [Peptide 94]
3.72	Palmitoyl-[γGlu][AEEA][AEEA][AEEA][AEEA]GN[3Pal][Trp(7-Me)]AV[dA]HL[Nle]-NH2 (SMILES CCCCCCCCCCCCCCCC(=O)N[C@@H](CCC(=O)NCCOCCOCC(=O)NCCOCCOCC(=O)NCCOCCOCC(=O)NCCOCCOCC(=O)NCC(=O)N[C@@H](CC(N)=O)C(=O)N[C@@H](Cc1cccnc1)C(=O)N[C@@H](Cc1c[nH]c2c(C)cccc12)C(=O)N[C@@H](C)C(=O)N[C@H](C(=O)N[C@H](C)C(=O)N[C@@H](Cc1c[nH]cn1)C(=O)N[C@@H](CC(C)C)C(=O)N[C@@H](CCCC)C(N)=O)C(C)C)C(=O)O) [Peptide 91]
1230	{C18 diacid}-[d(γGlu)][AEEA][AEEA]GNHWAV[dA]HL[Nle][Aib]-NH2 (SMILES CCCC[C@H](NC(=O)[C@H](CC(C)C)NC(=O)[C@H](Cc1c[nH]cn1)NC(=O)[C@@H](C)NC(=O)[C@@H](NC(=O)[C@H](C)NC(=O)[C@H](Cc1c[nH]c2ccccc12)NC(=O)[C@H](Cc1c[nH]cn1)NC(=O)[C@H](CC(N)=O)NC(=O)CNC(=O)COCCOCCNC(=O)COCCOCCNC(=O)CC[C@@H](NC(=O)CCCCCCCCCCCCCCCCC(=O)O)C(=O)O)C(C)C)C(=O)NC(C)(C)C(N)=O) [Peptide 82]
109	{C18 diacid}-[d(γGlu)][AEEA][AEEA][AEEA][AEEA]GN[3Pal]WAV[dA]HL[Nle]-NH2 (SMILES CCCC[C@H](NC(=O)[C@H](CC(C)C)NC(=O)[C@H](Cc1c[nH]cn1)NC(=O)[C@@H](C)NC(=O)[C@@H](NC(=O)[C@H](C)NC(=O)[C@H](Cc1c[nH]c2ccccc12)NC(=O)[C@H](Cc1cccnc1)NC(=O)[C@H](CC(N)=O)NC(=O)CNC(=O)COCCOCCNC(=O)COCCOCCNC(=O)COCCOCCNC(=O)COCCOCCNC(=O)CC[C@@H](NC(=O)CCCCCCCCCCCCCCCCC(=O)O)C(=O)O)C(C)C)C(N)=O) [Peptide 83]
14.7	{C18 diacid}-[γGlu][AEEA][AEEA]GNH[Trp(7-Me)]AV[dA]HL[Nle]-NH2 (SMILES CCCC[C@H](NC(=O)[C@H](CC(C)C)NC(=O)[C@H](Cc1c[nH]cn1)NC(=O)[C@@H](C)NC(=O)[C@@H](NC(=O)[C@H](C)NC(=O)[C@H](Cc1c[nH]c2c(C)cccc12)NC(=O)[C@H](Cc1c[nH]cn1)NC(=O)[C@H](CC(N)=O)NC(=O)CNC(=O)COCCOCCNC(=O)COCCOCCNC(=O)CC[C@H](NC(=O)CCCCCCCCCCCCCCCCC(=O)O)C(=O)O)C(C)C)C(N)=O) [Peptide 85]
110	{C18 diacid}-[γGlu][AEEA][AEEA][AEEA][AEEA]GN[3Pal][Trp(7-Me)]AV[dA]HL[Nle]-NH2 (SMILES CCCC[C@H](NC(=O)[C@H](CC(C)C)NC(=O)[C@H](Cc1c[nH]cn1)NC(=O)[C@@H](C)NC(=O)[C@@H](NC(=O)[C@H](C)NC(=O)[C@H](Cc1c[nH]c2c(C)cccc12)NC(=O)[C@H](Cc1cccnc1)NC(=O)[C@H](CC(N)=O)NC(=O)CNC(=O)COCCOCCNC(=O)COCCOCCNC(=O)COCCOCCNC(=O)COCCOCCNC(=O)CC[C@H](NC(=O)CCCCCCCCCCCCCCCCC(=O)O)C(=O)O)C(C)C)C(N)=O) [Peptide 95]
505	{C18 diacid}-[d(γGlu)][AEEA][AEEA]GNH[Trp(7-Me)]AV[dA]HL[Nle][Sar]-NH2 (SMILES CCCC[C@H](NC(=O)[C@H](CC(C)C)NC(=O)[C@H](Cc1c[nH]cn1)NC(=O)[C@@H](C)NC(=O)[C@@H](NC(=O)[C@H](C)NC(=O)[C@H](Cc1c[nH]c2c(C)cccc12)NC(=O)[C@H](Cc1c[nH]cn1)NC(=O)[C@H](CC(N)=O)NC(=O)CNC(=O)COCCOCCNC(=O)COCCOCCNC(=O)CC[C@@H](NC(=O)CCCCCCCCCCCCCCCCC(=O)O)C(=O)O)C(C)C)C(=O)N(C)CC(N)=O) [Peptide 81]
5.51	{C18 diacid}-[γGlu][AEEA][AEEA]GRHWAV[dA]HL[Nle]-NH2 (SMILES CCCC[C@H](NC(=O)[C@H](CC(C)C)NC(=O)[C@H](Cc1c[nH]cn1)NC(=O)[C@@H](C)NC(=O)[C@@H](NC(=O)[C@H](C)NC(=O)[C@H](Cc1c[nH]c2ccccc12)NC(=O)[C@H](Cc1c[nH]cn1)NC(=O)[C@H](CCCNC(=N)N)NC(=O)CNC(=O)COCCOCCNC(=O)COCCOCCNC(=O)CC[C@H](NC(=O)CCCCCCCCCCCCCCCCC(=O)O)C(=O)O)C(C)C)C(N)=O) [Peptide 88]
17.6	{C18 diacid}-[γGlu][AEEA][AEEA]GNH[Trp(7-F)]AV[dA]HL[Nle]-NH2 (SMILES CCCC[C@H](NC(=O)[C@H](CC(C)C)NC(=O)[C@H](Cc1c[nH]cn1)NC(=O)[C@@H](C)NC(=O)[C@@H](NC(=O)[C@H](C)NC(=O)[C@H](Cc1c[nH]c2c(F)cccc12)NC(=O)[C@H](Cc1c[nH]cn1)NC(=O)[C@H](CC(N)=O)NC(=O)CNC(=O)COCCOCCNC(=O)COCCOCCNC(=O)CC[C@H](NC(=O)CCCCCCCCCCCCCCCCC(=O)O)C(=O)O)C(C)C)C(N)=O) [Peptide 86]
1.57	Palmitoyl-[γGlu][AEEA][AEEA]GRHWAV[dA]HL[Nle]-NH2 (SMILES CCCCCCCCCCCCCCCC(=O)N[C@@H](CCC(=O)NCCOCCOCC(=O)NCCOCCOCC(=O)NCC(=O)N[C@@H](CCCNC(=N)N)C(=O)N[C@@H](Cc1c[nH]cn1)C(=O)N[C@@H](Cc1c[nH]c2ccccc12)C(=O)N[C@@H](C)C(=O)N[C@H](C(=O)N[C@H](C)C(=O)N[C@@H](Cc1c[nH]cn1)C(=O)N[C@@H](CC(C)C)C(=O)N[C@@H](CCCC)C(N)=O)C(C)C)C(=O)O) [Peptide 89]
1.73	Palmitoyl-[γGlu][AEEA][AEEA]GNH[Trp(7-F)]AV[dA]HL[Nle]-NH2 (SMILES CCCCCCCCCCCCCCCC(=O)N[C@@H](CCC(=O)NCCOCCOCC(=O)NCCOCCOCC(=O)NCC(=O)N[C@@H](CC(N)=O)C(=O)N[C@@H](Cc1c[nH]cn1)C(=O)N[C@@H](Cc1c[nH]c2c(F)cccc12)C(=O)N[C@@H](C)C(=O)N[C@H](C(=O)N[C@H](C)C(=O)N[C@@H](Cc1c[nH]cn1)C(=O)N[C@@H](CC(C)C)C(=O)N[C@@H](CCCC)C(N)=O)C(C)C)C(=O)O) [Peptide 87]
26.8	GNHWAVXHLX (Gly-Asn-His-Trp-Ala-Val-D-Ala-His-Leu-Nle-NH2) [Peptide 6]
12.6	{C18 diacid}-[γGlu][AEEA][AEEA][AEEA][AEEA]GNH[Trp(7-Me)]AV[dA]HL[Nle]-NH2 (SMILES CCCC[C@H](NC(=O)[C@H](CC(C)C)NC(=O)[C@H](Cc1c[nH]cn1)NC(=O)[C@@H](C)NC(=O)[C@@H](NC(=O)[C@H](C)NC(=O)[C@H](Cc1c[nH]c2c(C)cccc12)NC(=O)[C@H](Cc1c[nH]cn1)NC(=O)[C@H](CC(N)=O)NC(=O)CNC(=O)COCCOCCNC(=O)COCCOCCNC(=O)COCCOCCNC(=O)COCCOCCNC(=O)CC[C@H](NC(=O)CCCCCCCCCCCCCCCCC(=O)O)C(=O)O)C(C)C)C(N)=O) [Peptide 90]
5.11	{C18 diacid}-[d(γGlu)][Ava]GNHWAV[dA]HL[Nle]-NH2 (SMILES CCCC[C@H](NC(=O)[C@H](CC(C)C)NC(=O)[C@H](Cc1c[nH]cn1)NC(=O)[C@@H](C)NC(=O)[C@@H](NC(=O)[C@H](C)NC(=O)[C@H](Cc1c[nH]c2ccccc12)NC(=O)[C@H](Cc1c[nH]cn1)NC(=O)[C@H](CC(N)=O)NC(=O)CNC(=O)CCCCNC(=O)CC[C@@H](NC(=O)CCCCCCCCCCCCCCCCC(=O)O)C(=O)O)C(C)C)C(N)=O) [Peptide 80]
2550	{C18 diacid}-[d(γGlu)][AEEA][AEEA]GNH[Trp(6-Me)]AV[dA]HL[Nle][Sar]-NH2 (SMILES CCCC[C@H](NC(=O)[C@H](CC(C)C)NC(=O)[C@H](Cc1c[nH]cn1)NC(=O)[C@@H](C)NC(=O)[C@@H](NC(=O)[C@H](C)NC(=O)[C@H](Cc1c[nH]c2cc(C)ccc12)NC(=O)[C@H](Cc1c[nH]cn1)NC(=O)[C@H](CC(N)=O)NC(=O)CNC(=O)COCCOCCNC(=O)COCCOCCNC(=O)CC[C@@H](NC(=O)CCCCCCCCCCCCCCCCC(=O)O)C(=O)O)C(C)C)C(=O)N(C)CC(N)=O) [Peptide 84]
6.95	Palmitoyl-[γGlu][AEEA][AEEA]GNH[2Nal]AVAHL[Nle]-NH2 (SMILES CCCCCCCCCCCCCCCC(=O)N[C@@H](CCC(=O)NCCOCCOCC(=O)NCCOCCOCC(=O)NCC(=O)N[C@@H](CC(N)=O)C(=O)N[C@@H](Cc1c[nH]cn1)C(=O)N[C@@H](Cc1ccc2ccccc2c1)C(=O)N[C@@H](C)C(=O)N[C@H](C(=O)N[C@@H](C)C(=O)N[C@@H](Cc1c[nH]cn1)C(=O)N[C@@H](CC(C)C)C(=O)N[C@@H](CCCC)C(N)=O)C(C)C)C(=O)O) [Peptide 93]
1.58	Palmitoyl-[γGlu][AEEA][AEEA]GNHWAV[dA]HL[Nle]-NH2 (SMILES CCCCCCCCCCCCCCCC(=O)N[C@@H](CCC(=O)NCCOCCOCC(=O)NCCOCCOCC(=O)NCC(=O)N[C@@H](CC(N)=O)C(=O)N[C@@H](Cc1c[nH]cn1)C(=O)N[C@@H](Cc1c[nH]c2ccccc12)C(=O)N[C@@H](C)C(=O)N[C@H](C(=O)N[C@H](C)C(=O)N[C@@H](Cc1c[nH]cn1)C(=O)N[C@@H](CC(C)C)C(=O)N[C@@H](CCCC)C(N)=O)C(C)C)C(=O)O) [Peptide 96]
